Results from patent US20260069707A1, “COMBINATION THERAPY WITH ANTIBODY-DRUG CONJUGATES AND HYALURONIDASES” (HALOZYME, INC., priority 2024, published 2026).

Experiments:
[1] = Histological analysis (H&E) of post-injection tissue samples; assay type: in vivo, Yucatan miniature pig (Sus scrofa domestica)
Excerpt: Following the assessment after day three, the animal was humanely euthanized using an injectable euthanasia drug provided by the vivarium staff. Following euthanasia full thickness punch biopsies of the injection site were taken (12 mm) and placed in 10% formalin. After obtaining the punch biopsies the animal carcass was removed and disposed of as biohazardous waste. Sections were made from tissue samples and assessed for histopathology using hematoxylin and eosin staining methods. Analyses were performed on each injection site (2 biopsies) and one untreated site. Three tissue depths were examined from each tissue section following level sectioning technique, representing the beginning, middle and end of each section.
After fixation the samples were processed and embedded into paraffin to make formalin fixed paraffin embedded (FFPE) tissues sections Each tissue section was evaluated at three different tissue depths (1-2-3; low-medium-high). In addition to tissue samples from the injection site, a sample was taken from naïve untreated tissue for comparison.
Each injection was one mL and was delivered using a pre-filled 1-cc syringe. After the last timepoint, the animal was humanely euthanized. After euthanasia, punch biopsies of each injection site were obtained and preserved in 10% formalin for histological analyses.
After fixation, the samples were processed and embedded into paraffin to make formalin fixed paraffin embedded (FFPE) tissues sections Each tissue section was evaluated at three different tissue depths (1-2-3; low-medium-high). In addition to tissue samples from the injection site, a sample was taken from two naïve untreated tissue sites for comparison. Tissue sections were prepared and stained with hematoxylin and eosin for pathohistological evaluation.
Method: After 72h, animals were euthanized and full-thickness punch biopsies taken (12 mm). FFPE sections were prepared from each injection site. Samples were evaluated at three different tissue depths. A sample of naïve skin was also included for comparison. Results: 1/3 tissue samples from ADC alone had multiple focal infiltrates in SC (all levels).

[2] = pig, in vivo, sc
Protocol: Porcine serum was used as surrogate matrix to prepare calibration standards and quality controls for skin sample quantitation. Untreated blank porcine skin was provided for preparation of monitoring quality controls. The porcine skin was homogenized at an approximate ratio of 0.5 mL of buffer for every 100 mg of skin.
Porcine serum was used as surrogate matrix to prepare calibration standards and quality controls for the quantitation of skin samples. Supported liquid-liquid extraction was used for sample clean up. […] The porcine skin was homogenized at an approximate ratio of 0.5 mL of buffer for every 100 mg of skin.
Therefore, nominal time points were used for PK analyses. To estimate the serum concentration at time zero for intravenous (IV) data, a second-order polynomial regression was applied to the early serum time points (0.25, 1, and 2 hours). The intercept of the fitted polynomial curve was used as the extrapolated concentration at time zero. Skin concentration data (μg/mL) was normalized to total protein (mg/mL) per sample, resulting in values represented as μg/mg protein.
Pharmacokinetic parameters were calculated using noncompartmental methods performed in Microsoft Excel. The area under the concentration-time curve (AUC) was determined using the linear trapezoidal rule. For serum data, AUC0-7 was calculated using all available time points. For skin data, AUC1-7 was computed based on the three available time point measurements. The maximum observed concentration (Cmax) was identified directly from the dataset, and the time at which it occurred (Tmax) was recorded. All calculations were performed using Microsoft Excel.
This sample was divided vertically into two identical pieces. One skin sample was placed into a pre-weighed cryogenic tube and its weight was recorded then stored on dry ice prior to transfer to ≤−70° C. The other skin sample was processed for potential future histological assessment into OCT freezing media and frozen on dry ice.
Animals received two SC doses on their lower abdominal region.
Two cohorts were included in the follow-on study. […] Each animal had two full thickness skin biopsies taken post-mortem using a 12 mm punch. This sample was divided vertically into two identical pieces. One skin sample was placed into a pre-weighed cryogenic tube and its weight was recorded, then stored on dry ice prior to transfer to ≤−70° C. The other skin sample was processed into OCT molds for potential future histological assessment.
Tissue lysates were prepared based upon the weight of the sample at a ratio of 0.2 g/mL homogenization buffer (Tables 64 and 65). The total protein concentration of each homogenate was determined by BCA assay. The concentration of the total ADC (TADC), total antibody (TAB) and free payload (SN38) in each sample was then normalized to the protein concentration and reported in μg analyte per mg total protein.
In this initial study, six animals were used. […] Two cohorts were included in this study. Cohort 1 was euthanized 24 hours after treatment, while Cohort 2 was euthanized 48 hours after exposure to the two test solutions.

[3] = Calculation of drug to antibody ratio (DAR); conditions: for ADC:free Ab / free Ab:ADC: after adjustment factor
Excerpt: The Drug-to-Antibody Ratio (DAR) is a critical parameter in antibody drug conjugate development, representing the average number of drug molecules attached to each antibody molecule.

[4] = Linker stability during skin tissue sample preparation (Trodelvy spiked into skin tissue); conditions: 100 μg/mL Trodelvy spiked into skin tissue, protein precipitation, LC-MS/MS
Protocol: Linker stability during skin tissue sample preparation was assessed by spiking 100 μg/mL Trodelvy into skin tissue, followed by protein precipitation and subsequent sample preparation for LC-MS/MS analysis. Free SN-38 was detected at approximately 10% of the total, which may be attributable to residual impurities in Trodelvy and/or linker hydrolysis occurring during the skin tissue processing steps. FIG. 62 provides the ratio of total ADC to total antibody (TADC/TAB) in skin tissue over time. Table 69 depicts the ratio of total ADC to total antibody in skin tissue homogenates, providing an indication of the extent of intact ADC that is remaining in the SC space over time.

Sacituzumab govitecan [Trodelvy]
Local skin tolerability ([1]; Example 3: 1 mL SC, exposure times 4 hours or less): demonstrated local skin tolerability | Tissue samples/injections with multiple focal (immune cell) infiltrates in SC ([1]; pig, in vivo): 1/3 | Focal instances of [immune] cell infiltrates in the SC space ([1]; pig, in vivo, sc): 2 | Necrosis ([1]; pig, in vivo, sc): 0 | Pathohistological findings (H&E) ([1]; pig, in vivo, sc): no findings | AUC(1-7) of free payload in tissue homogenates of injection site, Mean [2]: 0.17 µg·days/mL | AUC(1-7) of total ADC (TADC) in tissue homogenates of injection site, Mean [2]: 18.55 µg·days/mL | AUC(1-7) of total antibody (TAB) in tissue homogenates of injection site, Mean [2]: 45.30 µg·days/mL | Cmax of free payload in tissue homogenates of injection site, Mean [2]: 180 ng/mL | Cmax of total ADC (TADC) in tissue homogenates of injection site, Mean [2]: 22860 ng/mL | Cmax of total antibody (TAB) in tissue homogenates of injection site, Mean [2]: 29410 ng/mL | TADC/Free Payload, mean AUC(1-7) [2]: 10704% | TADC/Free Payload, mean Cmax [2]: 12800% | TADC/TAB, mean AUC(1-7) [2]: 41% | TADC/TAB, mean Cmax [2]: 78% | Total ADC Result [2]: <0.100 µg/mL | % DAR remaining (which may be ~ADC/ total Ab) ([3]; Day 1): 76.2% | % DAR remaining after adjustment factor to allow for variability (line without head) ([3]; Day 1): 68.6% | ADC:free Ab ([3]; Day 1): 218.2% | free Ab:ADC ([3]; Day 1): 45.8% | % DAR remaining (which may be ~ADC/ total Ab) ([3]; Day 7): 42.9% | % DAR remaining after adjustment factor to allow for variability (line without head) ([3]; Day 7): 34.3% | ADC:free Ab ([3]; Day 7): 52.2% | free Ab:ADC ([3]; Day 7): 191.7% | % DAR remaining (which may be ~ADC/ total Ab) ([3]; Day 14): 31.0% | % DAR remaining after adjustment factor to allow for variability (line without head) ([3]; Day 14): 24.8% | ADC:free Ab ([3]; Day 14): 32.9% | free Ab:ADC ([3]; Day 14): 303.8% | % DAR remaining (which may be ~ADC/ total Ab) ([3]; Day 21): 23.8% | % DAR remaining after adjustment factor to allow for variability (line without head) ([3]; Day 21): 19.0% | ADC:free Ab ([3]; Day 21): 23.5% | free Ab:ADC ([3]; Day 21): 425.0% | Free SN-38 detected, % of the total [4]: approximately 10%
